Target: T1, human PSMA polypeptide (prostate specific membrane antigen) (human, UniProt Q04609 1-750)
T1 construct: also called PSMA protein
Assay: binding to LNCaP cells expressing PSMA
Protocol: Binding affinity and specificity to a human PSMA polypeptide were tested using LNCaP cells expressing the PSMA protein.

T1 sequence (Q04609 whole entry): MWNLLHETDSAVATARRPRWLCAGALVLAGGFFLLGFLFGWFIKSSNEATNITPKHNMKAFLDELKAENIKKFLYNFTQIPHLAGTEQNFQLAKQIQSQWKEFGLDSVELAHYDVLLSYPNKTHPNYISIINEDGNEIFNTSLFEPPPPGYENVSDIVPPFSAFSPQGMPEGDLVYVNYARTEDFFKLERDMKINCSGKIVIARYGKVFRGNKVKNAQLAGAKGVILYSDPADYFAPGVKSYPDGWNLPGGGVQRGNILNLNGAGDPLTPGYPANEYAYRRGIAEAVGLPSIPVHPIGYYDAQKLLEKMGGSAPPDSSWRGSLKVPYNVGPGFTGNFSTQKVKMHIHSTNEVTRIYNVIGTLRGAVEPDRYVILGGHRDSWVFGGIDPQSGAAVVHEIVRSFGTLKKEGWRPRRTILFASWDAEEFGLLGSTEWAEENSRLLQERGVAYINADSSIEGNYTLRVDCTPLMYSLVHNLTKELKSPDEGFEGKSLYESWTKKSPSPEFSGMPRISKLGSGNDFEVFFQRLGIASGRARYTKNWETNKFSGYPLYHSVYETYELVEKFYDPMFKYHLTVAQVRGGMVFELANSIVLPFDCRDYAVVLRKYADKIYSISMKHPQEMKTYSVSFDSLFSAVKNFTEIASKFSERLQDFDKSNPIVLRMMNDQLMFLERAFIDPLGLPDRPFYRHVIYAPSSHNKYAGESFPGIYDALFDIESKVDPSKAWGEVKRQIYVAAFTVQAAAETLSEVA

Binder	EC50
Clone #6 (VH domain) (VHH, Single human VH antibody domain from a phage library, not camelid; also called VH-W5A4) VHH: EVQLVESGGGLVQPGGSLRLSCTVSGFTFSSYAVSWVRQAPGQGLEWVSAIGAGGGTYYADSVKGRFTISRDNSKNTLYLQMNSLRAEDTAVYYCAKDGADWGQGTLVTVSS	32.7 nM
Clone #8 (VH domain) (VHH, Single human VH antibody domain from a phage library, not camelid) VHH: EVQLVESGGGLVQPGGSLRLSCTVSGFTFSSYAVSWVRQAPGQGLEWVSSIGAGGGTYYADSVKGRFTISRDNSKNTLYLQMNSLRAEDTAVYYCAKDGADWGQGTLVTVSS	10.8 nM
Clone #7 (VH domain) (VHH, Single human VH antibody domain from a phage library, not camelid) VHH: EVQLVESGGGLVQPGGSLRLSCTVSGFTFSSYAVSWVRQAPGQGLEWVSAIGAGGGTYYADSVKGRFTISRDNSKNTLYLQMNSLRAEDTAVYYCAKDGVDWGQGTLVTVSS	8.65 nM
Clone #9 (VH domain) (VHH, Single human VH antibody domain from a phage library, not camelid; also called VH-4mut) VHH: EVQLVESGGGLVQPGGSLRLSCTVSGFTFDDYAVSWVRQAPGQGLEWVSSIGAGGGTYYADSVKGRFTISRDDSKDTLYLQMNSLRAEDTAVYYCAKDGVDWGQGTLVTVSS	15.1 nM
Clone #1 (scFv) (scFv) scFv: QVTLKESGAEVKKPGESLKISCKASGYSFTNYWIGWVRQMPGKGLEWMGIIYPGDSDTRYSPSFQGQVTISADKSISTAYLQWSSLKASDTAMYYCARQGGYYYGMDVWGQGTTVTVSSGGGGSGGSGSGGGGSVPVLTQPHSVSESPGKTVTISCTRSSGSIASNYVQWYQQRPGSSPTTVIYEDNQRPSGVPDRFSGSIDMSSNSASLTISGLRTEDEGDYYCQSYDSRNHVVFGGGTQLTVLG	6.56 nM
Clone #3 (VH domain) (VHH, Single human VH antibody domain from a phage library, not camelid; also called VH-Z4D2) VHH: EVQLVESGGGVVQPGRSLRLSCAASGFTFSSYAMHWVRQAPGKGLEWVATIYQDGSESEYVDSVKGRFTVSRDNAKNTLYLQMDSLRAEDTATYYCVGRGSTSITPVWGLGTLVTVSS	4.59 nM
Clone #5 (VH domain) (VHH, Single human VH antibody domain from a phage library, not camelid) VHH: EVQLVESGGGMVQPGRSLRLSCAASGFTFSSYAMHWIRQAPGKGLEWVATIYQDGSESEYVDSVKGRFAVSRDNAKNTLYLQMDSLRAEDTATYYCVGRASASITPVWGLGTLVTVSS	2.95 nM
Clone #4 (VH domain) (VHH, Single human VH antibody domain from a phage library, not camelid; also called VH-Fla; VH-F1a) VHH: EVQLVESGGGVVQPGRSLRLSCAASGFTFSSYAMHWVRQAPGKGLEWVATIYQDGSESEYVDSVKGRFTVSRDDAKNTLYLQMDSLRAEDTATYYCVGRDSTSITPVWGLGTLVTVSS	3.05 nM
Clone #10 (VH domain) (VHH, Single human VH antibody domain from a phage library, not camelid) VHH: EVQMVESGGGVVQPGRSLRLSCAASGFTFSSYAMHWVRQAPGKGLEWVATIYQDGSESEYVDSVKGRFTVSIDNAKNTLYLQMDSLRAEDTATYYCVGRDSTSITPVWGLGTLVTVSS	8.7 nM
Clone #11 (VH domain) (VHH, Single human VH antibody domain from a phage library, not camelid) VHH: EVQLVESGGGVVQPGRSLRLSCAASGFTFSSYAMHWVRQAPGKGLEWVATIYQDGSESEYVDSVKGRFTVSIDNAKNTLYLQMDSLRAEDTATYYCVGRASTSITPVWGLGTLVTVSS	1.81 nM
Clone #2 (scFv) (scFv) scFv: QVQLQQSGAEVKKPGESLKISCKGSGYSFTNHWIAWVRQMPGKGLEWMGIIYPGDSDTRYSPSFQGQVTISADKSISTAYLQWSSLKASDTAMYYCARAQVGAFDIWGQGTMVTVSSGGGGSGGSGSSGGGSQSALTQPASVSGSPGQSITISCTRARDDVGGDNFVSWYQQHPGKAPKLMIYDVSNRPSGVSNRFSGSKSGNTASLTISGLQAEDEADYYCSSYTSSSTLPVFGGGTQLTVLG	8.97 nM
